Data as given in paper PMC9282883 (Nature, 2021).

B1: S304 IgG1 (antibody, V domains shown)
VH: EVQLVESGGGLVQPGGSLRLSCAASGFTFSSYDMHWVRQTTGKGLEWVSTIGTAGDTYYPDSVKGRFTISREDAKNSLYLQMNSLRAGDTAVYYCARGDSSGYYYYFDYWGQGTLLTVSS
VL: DIQMTQSPSSLSAAVGDRVTITCRASQSIGSYLNWYQQKPGKAPKLLIYAASSLQSGVPSRFSGSGSGTDFTLTISSLQPEDFAIYYCQQSYVSPTYTFGPGTKVDIK
B2: S2X35 IgG1 (antibody, V domains shown)
VH: QVQLVQSGAEVKKPGASVKVSCKASGYTFTNYGISWVRQAPGQGLEWMGWISAYKGNTNYAQKLQGRVTMTTDTSTSTAYMELRSLRSDDTAVYYCARPDYQVLGYDFWIGYYGMDVWGQGTTVIVSS
VL: QSVLTQPPSVSGAPGQRVTISCTGSSSNIGAGYDVHWYQQLPGTAPKLLIYGNTNRPSGVPDRFSGSKSGTSASLAITGLQAEDEADYYCQSYDSSLSGSEVVFGGGTKLTVL
B3: S2H97 IgG1 (antibody, V domains shown)
VH: QVRLVQSGAEVKKSGESLKISCKGSGYSFTSYWIGWVRQMPGKGLEWMGIIYPGDSDTRYSPSFQGQVTISADKSISTVYLQWSSLKASDTAMYYCARQWSHYTYDYYYWGQGTLVTISS
VL: QSVLTQPASVSGSPGQSITISCTGISSDVGGYNSVSWYQQHPGKAPKLMIYDVTNRPSGVSNRFSGSKSGNTASLTISGLQAEDEADYYCSSYTSSSTPPYVFGTGTKVSVL
B4: S2E12 IgG1 (antibody, V domains shown)
VH: not shown
VL: DIVLTQTPGTLSLSPGERATLSCRASQSVSSSYLAWYQQKPGQAPRLLIYGASSRATGIPDRFSGSGSGTDFTLTISRLEPEDFAVYYCQQYVGLTGWTFGQGTKVEIK
B5: S2D106 IgG1 (antibody, V domains shown)
VH: EVQLVQSGAEVKKPGSSVKVSCKASGGPFSSSAISWVRQAPGQGLEWMGGIIPMVGTANYAQKFQGRVTITADESTSTAYMELSSLRSEDTAVYYCARDSRYCSGGSCYSVWFDPWGQGTLVTVSS
VL: not shown
B6: S2E12 Fab (Fab, V domains shown)
VH: not shown
VL: B4 VL
B7: S2D106 Fab (Fab, V domains shown)
VH: B5 VH
VL: not shown
B8: S304 Fab (Fab, V domains shown)
VH: B1 VH
VL: B1 VL
B9: S2X35 Fab (Fab, V domains shown)
VH: B2 VH
VL: B2 VL
B10: S2H97 Fab (Fab, V domains shown)
VH: B3 VH
VL: B3 VL

Biological target: T1, SARS-CoV-2 RBD WT (for SPR binding assays) (SARS-CoV-2, Wuhan-Hu-1 (WT), UniProt P0DTC2)
Experiment: SPR

Binder	Kd [nM]
B1	0.4
B2	0.06
B3	0.04
B4	0.7
B5	0.04
B6	1.7
B7	0.05
B8	1
B9	0.2
B10	0.04

Biological target: T1, SARS-CoV-2 RBD WT (for SPR binding …)
Experiment: cell-based or functional assay

Binder	IC50, neutralisation of authentic SARS-CoV-2 (SARS-CoV-2-Nluc) on Vero E6 cells [µg/mL]	IC90, neutralisation of authentic SARS-CoV-2 (SARS-CoV-2-Nluc) on Vero E6 cells [µg/mL]
B1	14.4	–
B2	0.179	0.593
B3	0.749	3.29
B4	0.0045	0.014
B5	0.0068	0.0236
